According to the nanobody polyreactivity screen of Harvey et al. (2022):

Test: yeast display, Sf9 membrane polyspecificity reagent, FACS + sequencing; frameworks hold sequencing errors
Summary of the method: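 A synthetic nanobody library was expressed on Saccharomyces cerevisiae BJ5465 by galactose induction for 36–48 hours. The library was stained for 1 hour at 4 °C with 10% biotinylated, detergent-solubilized Sf9 membrane reagent and enriched with streptavidin microbeads before FACS. Low and high (top ~1%) gates were set on anti-HA fluorescence for expression and streptavidin fluorescence for reagent binding, and each polyreactivity label reflects the gate of origin.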

Sequence | polyreactivity (PSR sort gate)
QFQLVESRGGLVKAGGSLRLTCAASGSILYQNTMGWYRQATGKERELVAAISGSGSRTYYADSVKGRFTISRDNAKNTVYLQMNSLKPEDTAVYYCAASGYWPFRSGFGYWGQGTQVTVSS | high polyreactivity
QFQLVESVGGLVQAGSRLRLSCAASGRTFIPYAMGWYRQAPGKERELVAAITSSGGLTYYADSVMGRFTISRDNAKNTVYLQMNSLKPEDTAVYYCNKYARGYDMDYWGHGTQVTVSS | high polyreactivity
QFQLVYSGGGLVQAGGSLRLSCAASGRTYGIYAMVWYRQAPGKERDLVAAISSDASTSYADSLKGRFTISRDNAKITVYLQMNSLKPEDTAVYYCGADPGTYYEWGYVYWGQGTQVTVSS | low polyreactivity
QGHLVESWGGLVQAGGSLRLSCAASGSIFKDNAMGWYRQAPGKERELVAAITWSGGSTYYADSVKGRFTSSRDNANNTVYLQMNSLKAEDTAVDRYKYDYWGQGTQVTVSS | low polyreactivity
QGQLEESGGCLVQAGGSLRLSCAASGIIFYKNAMGWYRPAPGKERELVAAISGSGGRTYYADSVKGRFTISRDNAKNTVYLQMNSLKPEVTAVSYCAARQPYRHGYESWGQGTQVTVSS | high polyreactivity
QGQLEESGGGLVQAGCSLRRSCAASGNIFLIYAMGWSRQAPGKEGELVAAISFSDDTTDYADSVKGRFTSSRDNAKNTAYIQMNSLKPEDTAVYYCAAELYYDVANTQYDYWGQGTQVTVSS | high polyreactivity
QGQLEESGGGLVQAGGSLRLSCAASGFIIYDYDMGRYRQAPGKERELVAAITYSGGSTYYADSVKGRFTISRDNAKNTVYLQMNSLKPEDTAVYHCAAVKSRYAVAVDYYYWGQGTQVTVSS | low polyreactivity
QGQLEESGGGLVQAGGSLRLSCAASGRIFRYNTMGWYRQAPGKERELVADITSSDSSTYYADSVKGRFTISRDNAKNTLYLQMNSLKPEDTEVYFCAARDSGYGWRYYYWGHGTQVTVSS | low polyreactivity
QGQLEESGGGLVQAGGSLRLSCAASGRTFAFYTMGWYRQAPGKERELVAAITRGGSTYYADSVKGRFTISRDNAKNTVYVQMNSLKPEDTAVYYCAASTRYYSQQFDYWGQGTQVTVSS | high polyreactivity
QGQLVESGEGLVQAGGSLRLRCAASGSIIRYYTMGGYRQAPGKERELVAAISWSGGSTYYADSVKGRFTISRDNANNTVYLQMNSLKPEETSVYYCNAVSFAYNPYSATYDYWGQGTQVTVSS | high polyreactivity
QGQLVESGGALVQAGGSLRLSCAASGSTFVRNAMGWYRPAPRKERELVAAISNVGSTYYADSVKGRFTISRDNAKNTVYFQKNSLKPEDTAVYYCTKQLWYHKFNYWGQGTQVTVSS | low polyreactivity
QGQLVESGGGLFQAGGSLRLSCAASGRIFRRYAMGWDIQAPGKERELVAAISRGGSTYYADSVKGRFTISRDNAKNTVYLQMNSLKPEDTAVYYCAAYSQSTSFGGYDSWGQGTQVTVSS | high polyreactivity
QGQLVESGGGLGQAGGSLRLSCAASGSTVVLYAMGWYRQARGKERELVAAISGGATTTYADSVKGRFTISRDNAKNTVYLQMNSLKPEDTAVYYCAADFSTFVLSGAAMDYWGQGTQVTVSS | low polyreactivity
QGQLVESGGGLGQEGCSLRLSCAASGNTFIINAMGWYRQARGNERELVAAITSGGSTNYADSVKGRFTISGDNAKNTVYLQMNSLKPEDTAVYDCAARTRLYYYKVRKYRMDYWGQGTQVTVSS | low polyreactivity
QGQLVESGGGLVQAGASLSLTSDDYRTIVKTYAMGSYRPAPGKESEMVAAISWRGGSTYYADSVKGRITISRDNAKNTVYLQMNSMKPVDTAVYYCVAVRNFGTRTLWYRYGYWGQGSQVTVSS | high polyreactivity
QGQLVESGGGLVQAGGCLRLSCAASGGTFDYNAMGWYRQAPGKERELVAAITSGASTYYADSVKGRFTISRDNAKNTVYLQMNSLKPQDTAVYYCAKGPTPGYDYWGQGTQVTVSS | low polyreactivity
QGQLVESGGGLVQAGGRLRLSCAASGSIFRAYAMGWYRQAPGKERELVADISRSGGSTYYADSVKGRFTISRDNAKNTVYLQMNSLKPEDTAVYYCYAPVGWSVEARVSRGYEDQYDYWGQGSQVTVSS | low polyreactivity
QGQLVESGGGLVQAGGRLRLTCAASGSIFAGNAMGWYRQAPGKERELVAAIRWSTGSTYYADSVKGRFTISRDNAKNTVYLQLNSLKPEDTAVYYCAATDTTFYGIVRYEYWGQGTQVTVSS | low polyreactivity
QGQLVESGGGLVQAGGRLSLSCAASGFTFDNYAMGWYSQAPGKERELVAAITSGGSTNYADSVKGRFTISRDNAKNTVYLQMNSLKPEDTAVYYCNVERSIQAQVNAEYYYWGQGTQVSVSS | low polyreactivity
QGQLVESGGGLVQAGGSLRLSCAASGFIFGTYAMGWYRQAPGKERELVAAITGSGGDTYYADSVKGRFTISRDNAKNTVYLQMNSLKPEDTAVYYCAAVRPPTPSRRREDYWGQGTQVTVSS | low polyreactivity
QGQLVESGGGLVQAGGSLRLSCAASGFTFPGYAMGWYRQAPGNVRELVAAITGSGGRTYYADSVKGRFTISRDNAKNTVYLQMNSLKPEDTAVYYCLARSSYNWYDYWGQGTQVTVSS | high polyreactivity

Sequence | polyreactivity (PSR sort gate)
QGQLVESGGGLVQAGGSLRLSCAASGIIFILYTMGWYRQAPGKEREFVATISSGGGSTFYADSVKGRFTISRDNAKNTVYLQMNSLKPEDTAVYYCAAEQLYYCERYYIWGYYYWGQGTQVTVSS | low polyreactivity
QGQLVESGGGLVQAGGSLRLSCAASGLTFGSYTMGWYRQAPGKERELVAAITSDGSTNYADSVKGRFTISRDNAKNTVYLQMNSLKPEDTAVYYCAATRVSYRQFKAIGYHYWGQGTQVTVSS | high polyreactivity
QGQLVESGGGLVQAGGSLRLSCAASGRIFAGNAMGWYRQAPGKDRELVAAISKSGRSTYYADSVKGRFTISRDNAKNTVYLQMNSLKPEDTAVYYCAKLYYPVSDQYDYYYWGQGTQVTVSS | low polyreactivity
QGQLVESGGGLVQAGGSLRLSCAASGRTFTDYAMGWYRQAPGKEWELVADISGSGGSTYYADSVKGRFTISRDNAKNTVYLQMNSLNPEDTAVYYCNAVGSRRDKFDYWGQGTQVTVSS | low polyreactivity
QGQLVESGGGLVQAGGSLRLSCAASGSIFFGNAMGWYRQAPGKERELVAGITGGGSTYYADSVKGRFTISRDNAKNTVYLQMNSLKPEDTAVYYCNKKAYRKTGMDYWGQGTQVTVSS | low polyreactivity
QGQLVESGGGLVQAGGSLRLSCAASGSIFIGNAMGWYRQAPGKERELVAAITGRGGRTYYADSVKGRFSISRDNAKNTVYLQMNSLKPVDTAVYDCNARSGSSYSGYYYWGQGTQVTVSS | high polyreactivity
QGQLVESGGGLVQAGGSLRLSCAASGSIFRPYPMGWYRQAPGKERELVATISSTGITNYADSVKGRFTISRDNAKNTVYLQMNSLKPEDTADYYCSAGLWYSYDYWGQGTQVTVSS | high polyreactivity
QGQLVESGGGLVQAGGSLRLSCAASGSIFWYYAMGGYRQAPGKERELVADITSTGGSTYYADSVKGRFTISRDNAKNTVYLQMNSLKPEDTAVYYCAGEASYHGYYSLGYWGQGTQVTVSS | high polyreactivity
QGQLVESGGGLVQAGGSLRLSCAASGSTFDYYVMGWYRQAPRKERELVAAISSGDSTNYADSVKGRFTISRDNAKNTVYLQMNSLKPEDTAVSYCAAEYTVHYDYWGQGTQVTVSS | low polyreactivity
QGQLVESGGGLVQAGGSLRLSCAASGSTFLHYAMGWYRQAPGKERELVAAISRRGGRTYYADSVKGRFTISRDNAKNTVYLQMNRLKPEDTAVYNCAVDGIRDGYWIFYYWGQGTQVTVSS | low polyreactivity
QGQLVESGGGLVQAGGSLRLSCAASGSTFTYNAMGWYRQAPGKERELVASISSGTTTYYADSVKGRFTISRDNAKNTVYLQMNSLKPEDTAVYYCAVDSWSRVQGWLAHNYDYWGQGTQVTVSS | low polyreactivity
QGQLVESGGGLVQAGGSLRLSCAATGFTFRYYAMGWYRHAPGKERELVATITRGGSTNYADSVKGRFTISRDNAKNTVYLQMNSLKPEDTAVYYCATGKNYWRGYEYWGQGTQVTVSS | low polyreactivity
QGQLVESGGGLVQAGGSLRLSCAAYGSTFYLYPMGRYRQAPGKERELVASISLSGRSTYYADSVKGRFTISRDNAKNTVYLQMNRLKQEDTAVYYCAARRFAYYFQYLGGGYWGQGTQVTVSS | high polyreactivity
QGQLVESGGGLVQAGGSLRLSCAPSGSTVWVNVMGCYSPARGKERELVAAIDSGGSTYYADSVKGRFTISRDKAKNTVYLQMISLKPEDTAVYYCNARVDTPSPYDYWGQGTQVTVSS | low polyreactivity
QGQLVESGGGLVQAGGSLRLSSAASGSTFVYAMGWYRQAPGKERVLVASISWSDSSTYYADSVKGRFTISRDNAKNTVYLQMNSQKREDTAVYYGYADQGTRDSDYWGQGTQGTVSS | low polyreactivity
QGQLVESGGGLVQAGGSRRLSCAASGFIYFNAMGWSRQAPGKEREMVASISYSGGSTYYADSVKGRFTISRDNAKNTVYLQMNSLKPEDTAVYYCAKAFIEPGYKYDSWGQGTQVTVSS | high polyreactivity
QGQLVESGGGLVQEGGILHLTCAASGRIFCYYDMGWSRQEPGKERELVAAISRSGGSTYYADSVKGRFTISRDNAKNTVYLQMNSLKPEDTAVYYCAAEYYGFSWAGYYYWGQGTQVTVSS | high polyreactivity
QGQLVESWGGLVQAGGSLRLSCAASGSTFCDYAMGWYRQAPGQERELVAAIDWSDGSTYYADSVKGRFTSSRDNAKNTGYLQMNSLKPEDTAVYYCAAEQWYGMYYWGQGTQVTVSS | high polyreactivity
QGQLVETGGGLVQAGGSLRLSCAASGSTFSYYAMGWYRQAPGKEREWVAAISRRGGSTYYADSVKGRFTISRDNAKNTVYLQMISLKPEDTAVNYCAADDYYSSRIEYYNWGQGTQVTVSS | high polyreactivity
QGQRVESGGGLGQAGGSLRISCAASGLTFHRYAMGWYRQAQGKETELVAAINYSGGRTYYADSVKGRFTISRDNAKYTVYFQMNSLKPEDTAVYYCNVARWGNIPVGEYDYWGQGTQVTVSS | high polyreactivity
